How the values were obtained:
[1] = target: BirA′ (protein encoded by Clostridium acetobutylicum gene Ca 0212), purified (Clostridium acetobutylicum (strain ATCC 824)); test: SEC
BplA (Ca 0589) = target: T1, BplA (Ca 0589) (Clostridium acetobutylicum, UniProt Q97LH2); test: TLC of […]Bio-5′-AMP; format: biochemical; conditions: 25 uM biotin, 5 uM ATP, 5.5 mM MgCl2, pH 8.0, room temperature; acceptor B. subtilis AccB-86
T1 sequence (Q97LH2 1-270): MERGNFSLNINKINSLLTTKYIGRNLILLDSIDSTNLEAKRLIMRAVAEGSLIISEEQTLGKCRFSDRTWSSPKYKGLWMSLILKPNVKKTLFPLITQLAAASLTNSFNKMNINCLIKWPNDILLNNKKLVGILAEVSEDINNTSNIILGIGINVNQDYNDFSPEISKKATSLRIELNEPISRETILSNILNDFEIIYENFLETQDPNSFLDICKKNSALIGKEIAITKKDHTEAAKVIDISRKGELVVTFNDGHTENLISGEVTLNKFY

stoichiometry N [1] | Compound | TLC of [32P]Bio-5′-AMP; AccB-86 native gel shift; MS/MS of product (BplA (Ca 0589))
2 | BirA′ (protein encoded by Clostridium acetobutylicum gene Ca 0212), purified (natural protein) | –
– | O=C(O)CCCC[C@@H]1SC[C@@H]2NC(=O)N[C@@H]21 [biotin] | In reactions with BplA, formation of the Bio-5′-AMP intermediate was detected upon biotin addition
